Test results published in patent US20260285964 (published 2026).

Experiments:
mouse IL-36R (IL-1Rrp2) = target: T1, mouse IL-36R (IL-1Rrp2) (mouse, UniProt Q9ERS7)
T1 chain: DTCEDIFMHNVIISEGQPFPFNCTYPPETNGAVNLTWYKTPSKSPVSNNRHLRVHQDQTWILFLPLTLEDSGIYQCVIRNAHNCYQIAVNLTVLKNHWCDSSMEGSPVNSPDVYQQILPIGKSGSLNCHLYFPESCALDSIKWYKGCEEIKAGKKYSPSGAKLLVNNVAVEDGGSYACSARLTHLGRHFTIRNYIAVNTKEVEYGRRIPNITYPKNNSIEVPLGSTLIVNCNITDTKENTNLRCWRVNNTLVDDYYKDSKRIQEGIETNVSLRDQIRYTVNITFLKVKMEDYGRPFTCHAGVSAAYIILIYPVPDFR

rat IL-36R = target: T2, rat IL-36R (rat, UniProt Q62929)
T2 chain: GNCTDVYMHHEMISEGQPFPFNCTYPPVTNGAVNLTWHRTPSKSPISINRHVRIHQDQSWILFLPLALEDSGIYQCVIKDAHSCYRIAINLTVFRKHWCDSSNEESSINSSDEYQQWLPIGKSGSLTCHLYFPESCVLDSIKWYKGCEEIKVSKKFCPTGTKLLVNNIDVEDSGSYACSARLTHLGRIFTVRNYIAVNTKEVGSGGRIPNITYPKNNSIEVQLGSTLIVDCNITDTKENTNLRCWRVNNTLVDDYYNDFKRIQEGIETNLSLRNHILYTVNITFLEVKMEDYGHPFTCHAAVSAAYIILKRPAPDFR

B1: HB0034 (antibody, V domains shown)
VH: QVQLVQSGAEVKKPGASVKVSCKASGYTFTSSWMHWAKQAPGQGLEWIGEIHPNSAKTNYNQKFQGRVTMTRDTSISTAYMELSRLRSDDTAVYYCARVDYGKPWFAYWGQGTLVTVSS
VL: QIVLTQSPGTLSLSPGERATLSCRASSSVSSSYLHWYQQKPGQAPRLWIYSTSSRATGIPDRFSGSGSGTDFTLTISRLEPEDFATYYCQQFQSSPLTFGQGTKLEIK
B1: no binding (mouse IL-36R (IL-1Rrp2)); no binding (rat IL-36R).
